Source: article PMC6415861, “The renal transport protein OATP4C1 mediates uptake of the uremic toxin asymmetric dimethylarginine (ADMA) and efflux of cardioprotective L-homoarginine” (PLoS ONE, 2019)

Tests used:
OATP4C1 = biological target: T1, OATP4C1 (Homo sapiens, UniProt Q6ZQN7); assay: inhibition of OATP4C1-mediated L-homoarginine ([…]) net uptake in HEK cells; format: cell-based
T1 construct: gene SLCO4C1
T1 sequence (Q6ZQN7 1-724): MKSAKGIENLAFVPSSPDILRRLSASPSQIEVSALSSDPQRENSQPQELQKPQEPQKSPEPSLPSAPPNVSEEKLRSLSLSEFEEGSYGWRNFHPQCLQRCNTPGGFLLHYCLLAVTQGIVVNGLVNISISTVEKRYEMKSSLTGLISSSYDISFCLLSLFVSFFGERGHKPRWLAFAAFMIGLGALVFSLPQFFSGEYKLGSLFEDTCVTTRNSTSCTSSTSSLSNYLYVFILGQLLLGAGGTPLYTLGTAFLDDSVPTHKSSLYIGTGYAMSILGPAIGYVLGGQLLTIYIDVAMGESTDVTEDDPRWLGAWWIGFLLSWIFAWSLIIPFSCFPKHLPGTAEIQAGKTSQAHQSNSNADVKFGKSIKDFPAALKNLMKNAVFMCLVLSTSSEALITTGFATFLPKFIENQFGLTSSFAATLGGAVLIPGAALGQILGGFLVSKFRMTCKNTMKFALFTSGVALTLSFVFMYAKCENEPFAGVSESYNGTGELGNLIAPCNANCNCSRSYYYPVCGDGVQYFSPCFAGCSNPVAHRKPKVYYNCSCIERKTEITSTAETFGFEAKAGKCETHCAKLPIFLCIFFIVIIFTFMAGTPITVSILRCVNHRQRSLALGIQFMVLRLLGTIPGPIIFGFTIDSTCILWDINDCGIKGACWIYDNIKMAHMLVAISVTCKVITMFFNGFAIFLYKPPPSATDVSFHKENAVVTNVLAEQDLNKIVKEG

[1] = substrate: N=C(N)NCCC[C@H](N)C(=O)O; assay: radiolabeled uptake in HEK-OATP4C1 vs vector control cells (Km); format: cell-based, Homo sapiens
[2] = substrate: CN(C)C(=N)NCCC[C@H](N)C(=O)O; assay: radiolabeled uptake and efflux in HEK-OATP4C1 vs vector control cells (Km); also inhibits L-homoarginine uptake; format: cell-based, Homo sapiens
[3] = substrate: N=C(N)NCCCC[C@H](N)C(=O)O; assay: radiolabeled uptake and efflux in HEK-OATP4C1 vs vector control cells (Km); format: cell-based, Homo sapiens

Question: `CN=C(NC)NCCC[C@H](N)C(=O)O` [SDMA] was tested. Which IC50 (OATP4C1) did it give?
Answer: The IC50 was 54 ± 1.3 µM.

B1: OATP4C1 (Homo sapiens) (protein)
chain: T1 sequence (Q6ZQN7 1-724)
Question: How did the Km [1] turn out when B1 was run?
Answer: The Km was 48.1 ± 5.7 µM.

Question: And the Km [2]?
Answer: Its Km is 232.1 ± 78.9 µM.

Question: What about the Km [3] of the same molecule?
Answer: The Km was 49.9 ± 9.6 µM.
